Patent publication US20140120109A1 (Regeneron, published 2014)

T1: rat TL1A, soluble, CHO-expressed, residues 76-252 of SEQ ID NO:258 with N-terminal His6-tag (rat, UniProt Q8K3Y7 76-252)
T1 sequence: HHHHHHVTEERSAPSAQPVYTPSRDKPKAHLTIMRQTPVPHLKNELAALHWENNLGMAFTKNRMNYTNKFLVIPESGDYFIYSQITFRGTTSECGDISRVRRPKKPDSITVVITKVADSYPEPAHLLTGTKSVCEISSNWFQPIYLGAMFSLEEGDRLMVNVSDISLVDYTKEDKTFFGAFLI

T2: Fhm, hTL1A(Q167R), soluble, CHO-expressed, residues 72-251 of SEQ ID NO:246 (human, UniProt O95150 72-251)
T2 chain: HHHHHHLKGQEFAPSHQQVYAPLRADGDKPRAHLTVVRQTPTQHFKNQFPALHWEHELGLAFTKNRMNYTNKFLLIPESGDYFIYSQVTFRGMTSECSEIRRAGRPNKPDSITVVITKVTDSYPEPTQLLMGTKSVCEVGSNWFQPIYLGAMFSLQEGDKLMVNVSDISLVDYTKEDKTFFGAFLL

T3: mouse TL1A, soluble, CHO-expressed, residues 76-252 of SEQ ID NO:250 with N-terminal His6-tag (mouse, UniProt Q5UBV8 76-252)
T3 construct: also called mTL1A; mTL1A (CHO)
T3 sequence: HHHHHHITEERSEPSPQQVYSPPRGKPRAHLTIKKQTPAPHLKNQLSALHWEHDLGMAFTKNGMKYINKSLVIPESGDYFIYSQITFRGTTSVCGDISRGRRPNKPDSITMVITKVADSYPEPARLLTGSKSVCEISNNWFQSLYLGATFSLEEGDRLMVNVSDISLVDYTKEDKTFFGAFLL

T4: human TL1A, soluble, CHO-expressed, residues 72-251 of SEQ ID NO:244 with N-terminal His6-tag (human, UniProt O95150 72-251)
T4 sequence: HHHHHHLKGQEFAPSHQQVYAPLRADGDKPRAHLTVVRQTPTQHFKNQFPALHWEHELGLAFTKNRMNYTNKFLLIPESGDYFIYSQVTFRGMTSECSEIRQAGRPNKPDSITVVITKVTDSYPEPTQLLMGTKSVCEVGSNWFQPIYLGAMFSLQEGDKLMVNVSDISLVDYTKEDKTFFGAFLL

T5: mouse TL1A, soluble, E. coli-expressed, residues 76-252 of SEQ ID NO:250 (mouse, UniProt Q5UBV8 76-252)
T5 construct: with or without N-terminal Met; also called mTL1A (E. Coli)
T5 sequence: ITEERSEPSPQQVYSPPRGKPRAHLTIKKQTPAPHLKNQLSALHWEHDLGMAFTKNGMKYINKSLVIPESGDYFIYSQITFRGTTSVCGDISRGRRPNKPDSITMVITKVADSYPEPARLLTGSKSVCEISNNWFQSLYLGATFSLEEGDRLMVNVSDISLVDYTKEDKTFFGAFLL

T6: cynomolgus monkey TL1A, soluble, E. coli-expressed, residues 72-251 of SEQ ID NO:248 (cynomolgus monkey (Macaca fascicularis), UniProt O95150 72-251 (human entry))
T6 construct: with or without N-terminal Met; also called MfTL1A (E. Coli)
T6 chain: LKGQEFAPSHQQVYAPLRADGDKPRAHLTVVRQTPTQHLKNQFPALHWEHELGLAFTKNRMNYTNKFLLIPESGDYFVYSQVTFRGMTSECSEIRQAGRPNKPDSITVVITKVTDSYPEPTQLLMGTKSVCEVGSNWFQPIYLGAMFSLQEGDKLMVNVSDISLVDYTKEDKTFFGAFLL

T7: Fhm, hTL1A(Q167R), soluble, E. coli-expressed, residues 72-251 of SEQ ID NO:246 (human, UniProt O95150 72-251)
T7 construct: with or without N-terminal Met
T7 chain: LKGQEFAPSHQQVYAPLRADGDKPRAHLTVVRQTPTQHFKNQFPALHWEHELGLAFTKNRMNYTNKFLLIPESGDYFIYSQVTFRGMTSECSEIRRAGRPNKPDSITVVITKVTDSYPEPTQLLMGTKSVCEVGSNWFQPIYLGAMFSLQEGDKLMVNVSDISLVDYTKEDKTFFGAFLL


Experiments:
[1] = target: T1, rat TL1A, soluble, CHO-expressed, …; test: cell-based or functional assay
[2] = target: T2, Fhm, hTL1A(Q167R), soluble, …; test: cell-based or functional assay
[3] = target: T1, rat TL1A, soluble, CHO-expressed, …; test: SPR 37C, mAb captured
Procedure, shortened: (§1)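 Biacore T100 SPR with captured mAb and soluble TL1A/Fhm analyte; ka and kd fitted to a 1:1 model assuming monomeric TL1A. KD = kd/ka; t1/2 (min) = ln2/(60·kd).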

[4] = target: T3, mouse TL1A, soluble, CHO-expressed, …; test: SPR 37C, mAb captured
Procedure, shortened: as §1

[5] = target: T4, human TL1A, soluble, CHO-expressed, …; test: cell-based or functional assay
[6] = target: T5, mouse TL1A, soluble, E. coli-expressed, …; test: SPR 25C, steady state
Procedure, shortened: as §1

[7] = target: T6, cynomolgus monkey TL1A, soluble, E. …; test: SPR 37C, mAb captured
Procedure, shortened: as §1

[8] = target: T7, Fhm, hTL1A(Q167R), soluble, E. …; test: SPR 37C, mAb captured
Procedure, shortened: as §1

[9] = target: T4, human TL1A, soluble, CHO-expressed, …; test: SPR 37C, mAb captured
Procedure, shortened: as §1

Row | Binder | IC50, NFkB-luciferase reporter [1] [nM] | IC50, NFkB-luciferase reporter [2] [nM] | Kd [3] [nM] | t1/2 [3] [h] | IC50, IFN-g release, average of donors [5] [nM] | IC50, IFN-g release, donor D5 [5] [nM] | IC50, IFN-g release, donor D6 [5] [nM] | IC50, IFN-g release, donor D7 [5] [nM] | IC50, IFN-g release, donor D8 [5] [nM] | IC50, IFN-g release, donor D9 [5] [nM] | IC50, IFN-g release, donor D10 [5] [nM] | IC50, IFN-g release, donor D11 [5] [nM] | IC50, IFN-g release, donor D12 [5] [nM] | Kd [7] [nM] | t1/2 [7] [h] | binding result [4] | IC50, IFN-g release, donor D1 [5] [nM] | IC50, IFN-g release, donor D2 [5] [nM] | IC50, IFN-g release, donor D3 [5] [nM] | IC50, IFN-g release, donor D4 [5] [nM] | other results
1 | H4H1704N (antibody, human IgG4 S228P, V domains shown, human IgG4(S108P) form of H2M1704N) VH: EVQLVESGGGLVQPGGSLRLSCAVSGFTFSSYWMSWVRQAPGKGLEWVANIKEDGSEKNYVDSVKGRFTLSSDNAKNSLYLQMNSLRAEDTAVYYCAREDYDSYYKYGMDVWGQGTAVIVSS VL: not shown | 0.4 | 0.17 | 0.046 | 2.22 | 12 | 17 | 11 | 12 | 19 | 7.5 | 10 | 11 | 8 | – | – | – | – | – | – | – | Kd [4]: 1.3 nM; t1/2 [4]: 0.45 h
2 | H4H1725P (antibody, human IgG4 S228P, V domains shown) VH: QVQLVQSGAEVKKPGASVKVSCKASGYTFTGYYMHWVRQAPGQGLEWMGWIKPKSGGTNYVQKFQGRVTMTRDTSINTAYMELNNLKSDDTAVYYCATGGSQDASDFWGQGTMVTVSS VL: DIQMTQSPSSVSASVGGRVTITCRASQDISIWLAWYQQKPGKAPNLLIYAASSLQSGVPSRFSGSGSGTDFTLTISSLQPEDFATYYCQQADSFPLTFGGGTKVEIK | 63.4 | 0.07 | 0.411 | 0.25 | 6.4 | 7 | 5.4 | 13 | 12 | 6.4 | 4.1 | 6.1 | 6.4 | 0.0622 | 2.9 | – | 3.4 | 3.2 | 5.4 | 4.7 | Kd [6]: 62 nM; Kd [9]: 0.0239 nM; t1/2 [9]: 12.6 h; Kd [8]: 0.0436 nM; t1/2 [8]: 3.23 h

The next lines start with results.

Row | IC50, NFkB-luciferase reporter [1] [nM] | IC50, NFkB-luciferase reporter [2] [nM] | Kd [3] [nM] | t1/2 [3] [h] | IC50, IFN-g release, average of donors [5] [nM] | IC50, IFN-g release, donor D5 [5] [nM] | IC50, IFN-g release, donor D6 [5] [nM] | IC50, IFN-g release, donor D7 [5] [nM] | IC50, IFN-g release, donor D8 [5] [nM] | IC50, IFN-g release, donor D9 [5] [nM] | IC50, IFN-g release, donor D10 [5] [nM] | IC50, IFN-g release, donor D11 [5] [nM] | IC50, IFN-g release, donor D12 [5] [nM] | Kd [7] [nM] | t1/2 [7] [h] | binding result [4] | IC50, IFN-g release, donor D1 [5] [nM] | IC50, IFN-g release, donor D2 [5] [nM] | IC50, IFN-g release, donor D3 [5] [nM] | IC50, IFN-g release, donor D4 [5] [nM] | Binder | other results
3 | 6.12 | 0.53 | 0.653 | 0.45 | 20 | 12 | 10 | 31 | 27 | 56 | 12 | 27 | 14 | 0.945 | 0.583 | no binding (tested: up to 100 nM) | 24 | 4.6 | 10 | 13 | H4H1742P (antibody, human IgG4 S228P, V domains shown) VH: EVQLVESGGGLVQPGGSLRLSCAASGFTFSNYVMNWVRQAPGKGLEWVSVISGSGGSTHYADSVKGRFTISRDNSKDALYLQMNSLRAEDTAVYYCAKGPLEAYYYYNGMDVWGQGTTVTVSS VL: DIQLTQSPSFLSASVGDRVTITCWASQAISSYLAWYQHKPGRAPKLLIYSTSTLQSGVPSRFSGSGSGTEFTLTISSLQPEDFATYYCQQLNSYPTFGQGTKLEIK | binding result [6]: no binding (tested: up to 100 nM); Kd [8]: 0.696 nM; t1/2 [8]: 0.75 h
4 | 3.64 | 0.1 | 0.127 | 1.47 | 8.8 | 6.7 | 8.6 | 12 | 11 | 8.1 | 12 | 7.6 | 7.5 | – | – | no binding (tested: up to 100 nM) | 6.8 | 8.6 | 8.6 | 7.7 | H4H1804N (antibody, human IgG4 S228P, V domains shown, human IgG4(S108P) form of H2M1804N) VH: QVQLHQWGAGLLKPSETLSLTCAVSGVSFSDYHWAWIRQSPGKGLEWIGDINHRGRTNYNPSLKSRVTISLDTSGNPFSLKLTSVTAADTAVYYCARDFPNWVFDSWGQGILVTVSS VL: EIVLSQSPGTLSLSPGERATLSCRASQSVSSSFLAWYQQYPGQAPRLLIYGASRRATGIPDRFRGSGSGTDFTLTISRLEPEDFAVYYCQQYGSSPLTFGGGTKVENK | Kd [9]: 0.0458 nM; t1/2 [9]: 4.77 h
